# Experimental data as given in patent US20150011431A1.
# Biological target: CXCR1 (UniProt P25024)
# Assay: cell-based or functional assay
# Sequence of CXCR1 (P25024 whole entry): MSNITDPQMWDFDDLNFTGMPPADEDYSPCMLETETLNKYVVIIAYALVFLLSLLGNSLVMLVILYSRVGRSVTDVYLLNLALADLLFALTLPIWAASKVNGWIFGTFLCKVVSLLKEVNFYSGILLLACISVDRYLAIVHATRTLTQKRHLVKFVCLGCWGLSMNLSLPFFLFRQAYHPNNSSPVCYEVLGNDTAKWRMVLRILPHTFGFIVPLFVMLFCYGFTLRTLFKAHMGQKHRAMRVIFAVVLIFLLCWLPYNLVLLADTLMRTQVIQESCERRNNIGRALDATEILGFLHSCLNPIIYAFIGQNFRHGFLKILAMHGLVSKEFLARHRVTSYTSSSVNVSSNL
# Sequence of IL-8 (soluble cytokine) (P10145 28-99 limits assumed): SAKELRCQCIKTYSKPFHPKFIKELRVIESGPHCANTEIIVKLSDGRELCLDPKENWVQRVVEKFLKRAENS
substance,measurement,value
IL-8 (soluble cytokine) (from UniProt P10145 28-99) (ligand),"average RLU at 0.01 nM (beta-arrestin recruitment reporter, CXCR1-U2OS cells)",440 RLU
same,"average RLU at 0.08 nM (beta-arrestin recruitment reporter, CXCR1-U2OS cells)",504 RLU
same,"average RLU at 0.23 nM (beta-arrestin recruitment reporter, CXCR1-U2OS cells)",940 RLU
same,"average RLU at 0.69 nM (beta-arrestin recruitment reporter, CXCR1-U2OS cells)",1940 RLU
same,"average RLU at 2.06 nM (beta-arrestin recruitment reporter, CXCR1-U2OS cells)",4110 RLU
same,"average RLU at 6.17 nM (beta-arrestin recruitment reporter, CXCR1-U2OS cells)",5870 RLU
same,"average RLU at 18.52 nM (beta-arrestin recruitment reporter, CXCR1-U2OS cells)",7300 RLU
same,"average RLU at 31.5 nM (beta-arrestin recruitment reporter, CXCR1-U2OS cells)",55500 RLU
same,"average RLU at 55.56 nM (beta-arrestin recruitment reporter, CXCR1-U2OS cells)",7360 RLU
same,"average RLU at 166.67 nM (beta-arrestin recruitment reporter, CXCR1-U2OS cells)",6770 RLU
same,"average RLU at 500.00 nM (beta-arrestin recruitment reporter, CXCR1-U2OS cells)",5720 RLU
IgG VH4-4 CDR3 BsaI (lacking the IL-8 insert) (antibody),"average RLU at 0.001 nM IgG (beta-arrestin recruitment reporter, CXCR1-U2OS cells)",7500 RLU
same,"average RLU at 0.004 nM IgG (beta-arrestin recruitment reporter, CXCR1-U2OS cells)",7390 RLU
same,"average RLU at 0.013 nM IgG (beta-arrestin recruitment reporter, CXCR1-U2OS cells)",7050 RLU
same,"average RLU at 0.040 nM IgG (beta-arrestin recruitment reporter, CXCR1-U2OS cells)",6970 RLU
same,"average RLU at 0.120 nM IgG (beta-arrestin recruitment reporter, CXCR1-U2OS cells)",7330 RLU
same,"average RLU at 0.359 nM IgG (beta-arrestin recruitment reporter, CXCR1-U2OS cells)",6690 RLU
same,"average RLU at 1.076 nM IgG (beta-arrestin recruitment reporter, CXCR1-U2OS cells)",7180 RLU
same,"average RLU at 3.228 nM IgG (beta-arrestin recruitment reporter, CXCR1-U2OS cells)",7030 RLU
same,"average RLU at 9.685 nM IgG (beta-arrestin recruitment reporter, CXCR1-U2OS cells)",7170 RLU
same,"average RLU at 29.056 nM IgG (beta-arrestin recruitment reporter, CXCR1-U2OS cells)",7100 RLU
same,"average RLU at 87.167 nM IgG (beta-arrestin recruitment reporter, CXCR1-U2OS cells)",7140 RLU
same,"average RLU at 261.500 nM IgG (beta-arrestin recruitment reporter, CXCR1-U2OS cells)",7540 RLU
